Results taken from publication PMC4267659 (Nucleic Acids Research, 2014).

Columns and labels:
Assay in all cases: native gel or EMSA
[1] = target: T1, P. horikoshii aEF1α R132L mutant (Pyrococcus horikoshii, UniProt O59153 1-428, R132L)
T1 sequence: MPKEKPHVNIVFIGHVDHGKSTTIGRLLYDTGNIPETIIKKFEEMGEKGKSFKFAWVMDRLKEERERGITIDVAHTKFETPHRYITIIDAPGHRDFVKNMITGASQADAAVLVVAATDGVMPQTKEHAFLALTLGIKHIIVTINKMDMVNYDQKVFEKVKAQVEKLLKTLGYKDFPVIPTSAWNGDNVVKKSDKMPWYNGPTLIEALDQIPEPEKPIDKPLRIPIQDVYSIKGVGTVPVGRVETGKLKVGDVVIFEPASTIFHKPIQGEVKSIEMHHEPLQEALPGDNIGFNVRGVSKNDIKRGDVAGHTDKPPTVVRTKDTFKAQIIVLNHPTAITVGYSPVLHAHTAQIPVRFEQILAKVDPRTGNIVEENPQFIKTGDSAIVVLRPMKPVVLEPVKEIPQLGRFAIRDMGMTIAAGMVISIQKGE

[2] = target: T2, P. horikoshii aEF1α L166S mutant (Pyrococcus horikoshii, UniProt O59153 1-428, L166S)
T2 sequence: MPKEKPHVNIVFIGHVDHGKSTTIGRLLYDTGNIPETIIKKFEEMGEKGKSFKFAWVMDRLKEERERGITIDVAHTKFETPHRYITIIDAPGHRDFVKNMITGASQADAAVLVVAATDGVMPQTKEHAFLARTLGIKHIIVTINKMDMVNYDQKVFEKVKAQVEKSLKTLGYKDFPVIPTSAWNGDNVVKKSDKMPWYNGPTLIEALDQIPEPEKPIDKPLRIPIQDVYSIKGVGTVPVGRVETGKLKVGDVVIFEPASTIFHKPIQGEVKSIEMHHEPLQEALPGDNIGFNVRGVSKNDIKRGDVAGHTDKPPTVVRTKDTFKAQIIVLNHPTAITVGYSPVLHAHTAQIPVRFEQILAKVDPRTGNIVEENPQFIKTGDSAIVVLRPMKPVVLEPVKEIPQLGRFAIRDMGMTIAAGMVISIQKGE

[3] = target: T3, P. horikoshii aEF1α L359S mutant (Pyrococcus horikoshii, UniProt O59153 1-428, L359S)
T3 sequence: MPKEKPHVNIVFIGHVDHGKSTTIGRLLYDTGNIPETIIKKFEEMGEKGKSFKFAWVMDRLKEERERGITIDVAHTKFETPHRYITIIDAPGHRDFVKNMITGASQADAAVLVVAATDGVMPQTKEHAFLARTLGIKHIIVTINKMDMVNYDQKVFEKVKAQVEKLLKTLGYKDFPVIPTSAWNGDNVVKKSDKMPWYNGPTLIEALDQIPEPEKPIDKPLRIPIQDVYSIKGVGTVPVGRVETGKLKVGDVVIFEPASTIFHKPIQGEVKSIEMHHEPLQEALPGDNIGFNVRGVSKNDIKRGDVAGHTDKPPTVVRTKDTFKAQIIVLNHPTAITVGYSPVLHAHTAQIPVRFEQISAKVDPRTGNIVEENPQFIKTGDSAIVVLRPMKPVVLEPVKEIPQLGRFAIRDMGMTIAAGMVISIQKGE

[4] = target: T4, P. horikoshii aEF1α A360S mutant (Pyrococcus horikoshii, UniProt O59153 1-428, A360S)
T4 sequence: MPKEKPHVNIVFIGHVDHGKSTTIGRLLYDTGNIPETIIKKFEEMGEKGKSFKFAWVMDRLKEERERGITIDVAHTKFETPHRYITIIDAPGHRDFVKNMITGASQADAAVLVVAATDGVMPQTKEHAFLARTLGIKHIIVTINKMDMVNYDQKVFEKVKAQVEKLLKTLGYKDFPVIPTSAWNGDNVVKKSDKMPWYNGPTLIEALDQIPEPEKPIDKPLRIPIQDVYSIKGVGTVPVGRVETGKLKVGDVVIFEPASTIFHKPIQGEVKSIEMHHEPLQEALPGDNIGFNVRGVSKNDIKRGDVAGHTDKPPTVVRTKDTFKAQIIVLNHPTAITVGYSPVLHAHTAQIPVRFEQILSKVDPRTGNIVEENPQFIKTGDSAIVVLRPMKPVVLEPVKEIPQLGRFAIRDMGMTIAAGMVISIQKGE

[5] = target: T5, P. horikoshii aEF1α S423L mutant (Pyrococcus horikoshii, UniProt O59153 1-428, S423L)
T5 sequence: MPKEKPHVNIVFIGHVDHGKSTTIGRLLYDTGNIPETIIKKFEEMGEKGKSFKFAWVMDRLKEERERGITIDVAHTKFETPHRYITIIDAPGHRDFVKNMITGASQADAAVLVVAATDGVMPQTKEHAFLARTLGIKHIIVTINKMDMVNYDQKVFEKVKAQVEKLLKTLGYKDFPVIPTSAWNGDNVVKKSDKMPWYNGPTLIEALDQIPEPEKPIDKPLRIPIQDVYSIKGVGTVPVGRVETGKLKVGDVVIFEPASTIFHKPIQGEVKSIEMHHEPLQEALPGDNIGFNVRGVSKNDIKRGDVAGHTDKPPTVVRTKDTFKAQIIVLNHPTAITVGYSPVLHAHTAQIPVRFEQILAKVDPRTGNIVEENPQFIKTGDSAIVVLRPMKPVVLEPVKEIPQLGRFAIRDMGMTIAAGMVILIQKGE

[6] = target: T6, P. horikoshii aEF1α K125L mutant (Pyrococcus horikoshii, UniProt O59153 1-428, K125L)
T6 sequence: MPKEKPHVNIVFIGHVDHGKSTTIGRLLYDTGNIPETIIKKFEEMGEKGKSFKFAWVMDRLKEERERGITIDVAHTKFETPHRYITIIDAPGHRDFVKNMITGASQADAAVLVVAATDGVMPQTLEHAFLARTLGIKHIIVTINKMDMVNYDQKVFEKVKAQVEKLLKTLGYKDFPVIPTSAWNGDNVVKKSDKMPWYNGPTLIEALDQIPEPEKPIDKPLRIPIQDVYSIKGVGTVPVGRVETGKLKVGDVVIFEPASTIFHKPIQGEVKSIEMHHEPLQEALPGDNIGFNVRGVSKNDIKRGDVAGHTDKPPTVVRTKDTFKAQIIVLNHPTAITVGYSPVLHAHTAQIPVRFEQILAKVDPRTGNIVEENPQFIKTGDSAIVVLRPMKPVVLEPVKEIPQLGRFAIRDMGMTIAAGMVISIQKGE

[7] = target: T7, Pyrococcus horikoshii elongation factor aEF1α, wild type (Pyrococcus horikoshii, UniProt O59153 1-428)
T7 sequence: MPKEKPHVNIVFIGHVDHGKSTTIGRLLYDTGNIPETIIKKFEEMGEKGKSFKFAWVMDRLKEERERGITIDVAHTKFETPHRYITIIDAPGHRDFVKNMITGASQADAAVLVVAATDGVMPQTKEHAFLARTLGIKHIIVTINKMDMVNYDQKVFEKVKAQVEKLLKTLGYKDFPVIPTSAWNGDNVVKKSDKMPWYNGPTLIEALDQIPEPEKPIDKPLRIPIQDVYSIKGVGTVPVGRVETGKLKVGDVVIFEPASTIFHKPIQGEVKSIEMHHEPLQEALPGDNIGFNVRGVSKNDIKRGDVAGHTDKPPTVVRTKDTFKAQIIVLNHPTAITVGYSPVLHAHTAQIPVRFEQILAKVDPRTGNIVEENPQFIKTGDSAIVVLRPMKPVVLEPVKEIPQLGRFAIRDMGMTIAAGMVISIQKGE

Measured: binding result

B1: Pyrococcus horikoshii ribosomal stalk protein aP1, wild type (natural protein, UniProt O57705 1-108, looked up)
chain: MEYVYAALLLHSVGKEINEENLKAVLQAAGVEPEEARIKALVAALEGVNIDEVIEKAAMPVAVAAAPAAAPAEAGGEEKKEEEKKEEEEKEEEVSEEEALAGLSALFG
not listed: [7]
binds: all other assays above

B2: P. horikoshii aP1 L100S mutant (natural protein, Pyrococcus horikoshii, UniProt O57705 1-108, looked up)
chain: MEYVYAALLLHSVGKEINEENLKAVLQAAGVEPEEARIKALVAALEGVNIDEVIEKAAMPVAVAAAPAAAPAEAGGEEKKEEEKKEEEEKEEEVSEEEASAGLSALFG
binds: [7]
